According to US20200368361A1 (Regeneron, published 2020):
Numbering of substitutions follows the chain as printed. Names may count otherwise.

T1: human MSR1 with a C-terminal Myc tag expressed on HEK293.Myc.hMSR1 cells (human, UniProt P21757 1-451)
T1 sequence (looked up): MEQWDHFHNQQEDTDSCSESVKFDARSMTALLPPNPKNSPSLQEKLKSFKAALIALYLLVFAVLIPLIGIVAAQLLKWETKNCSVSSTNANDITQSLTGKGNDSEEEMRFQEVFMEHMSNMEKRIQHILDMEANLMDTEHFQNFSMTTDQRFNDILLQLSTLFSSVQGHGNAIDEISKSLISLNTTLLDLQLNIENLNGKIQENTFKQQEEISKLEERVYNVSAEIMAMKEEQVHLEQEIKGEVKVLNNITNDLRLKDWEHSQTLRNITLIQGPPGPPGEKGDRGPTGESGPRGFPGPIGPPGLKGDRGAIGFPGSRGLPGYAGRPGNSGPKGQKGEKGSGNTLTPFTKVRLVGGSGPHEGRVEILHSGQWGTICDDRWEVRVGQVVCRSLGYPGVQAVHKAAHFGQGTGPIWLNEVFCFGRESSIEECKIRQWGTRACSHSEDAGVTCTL

T2: mouse MSR1 on RAW264.7 cells (mouse, UniProt P30204 1-458)
T2 construct: whole, on cells
T2 sequence (looked up): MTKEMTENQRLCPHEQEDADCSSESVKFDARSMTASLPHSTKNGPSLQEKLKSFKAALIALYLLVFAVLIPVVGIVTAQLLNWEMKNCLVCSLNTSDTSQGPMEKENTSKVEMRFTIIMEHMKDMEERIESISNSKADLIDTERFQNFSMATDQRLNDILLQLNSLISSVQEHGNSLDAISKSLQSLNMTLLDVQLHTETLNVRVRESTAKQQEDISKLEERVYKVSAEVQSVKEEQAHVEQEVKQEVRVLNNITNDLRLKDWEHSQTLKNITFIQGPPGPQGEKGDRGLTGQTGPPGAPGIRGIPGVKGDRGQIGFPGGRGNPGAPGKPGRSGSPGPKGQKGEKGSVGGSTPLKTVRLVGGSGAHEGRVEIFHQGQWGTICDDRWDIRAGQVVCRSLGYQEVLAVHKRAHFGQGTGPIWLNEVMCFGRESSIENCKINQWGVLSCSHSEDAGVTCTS

B1: H1H27729P-N297Q (antibody, V domains shown)
VH: QVQLVESGGGLVKPGGSLRLSCAASGFIFSDYYMSWIRQAPGKGLEWVSYISSSGTTIYGDSVKGRFTMSRDNAKNSLYLQMNSLRAEDTAVYYCARNYALFDYWGQGTLVTVSS
VL: DIQMTQSPSSLSASVGDRVTITCQASQDISKYLNWYQQKPGKAPKLLIYYTSNLETGVPSRFSGSGSGTDFTFTISSLQPEDIATYYCHQSDYLPFTFGPGTKVDIKR
B2: H1H27731P-N297Q (antibody, V domains shown)
VH: QLQLQESGPGLVKPSETLSLTCTVSGGSISRISYYWGWIRQPPGKGLEWIGSIYDSGSTYYNPSLKSRVTISIDTSKNQFSLKLSSVTAADTAVYYCVRYSSSSAFAFDYWGQGTLVTVSS
VL: DIQMTQSPSSVSASVGDRVTITCRASQGISSWLAWYQQKPGKAPKLLIYAASSLQSGVPSRFSGSGSGTDFTLTISSLQPEDFATYYCQQANSFPFTFGPGTKVDIKR
B3: H1H21234N-N297Q (antibody, V domains shown)
VH: QVQLQESGPGLVKPSETLSLTCTVTGGSISRNYWSWIRQPPGKGLEWIGYIYYSGSIDYNPSLKSRVTISVDTSKNQFSLKLSSMTAADTAVYYCARDRWNWKYGMDVWGQGTTVIVSS
VL: EIVLTQSPGTLSLSPGERATLSCRASQTVRNNYLAWYHQKPGQAPRLLIYGASSRATGIPDRFSGSGSGTDFTLTISRLEPEDFTVYYCHQYGNSPWTFGQGTKMEIKR
B4: H1H21234N (antibody, V domains shown)
VH: B3 VH
VL: B3 VL
B5: H2aM25695N (antibody, V domains shown)
VH: B3 VH with D58N, T73M, S83N, M85V
VL: B3 VL with N32S, T85A, H90Q, N94S, P96Y
B6: H2aM25700N (antibody, V domains shown)
VH: QVQLVQSGSEVKKPGASVKVSCKVSGYTLTELSIHWVRQAPGKGLEWMGGFDPEDGETIYAQKFRGRVTMTEDISPDTAYMELSSLRSEDTAVYYCATPRYCNNGICYDYWGQGTLVTVSS
VL: DIQMTQSPSSLSASIGDRVTITCRASQSISSYLNWYQQKPGKAPMLLIYAASSLQSGVPSRFSGSGSGTDFTLTISSLQTEDFATYYCQQSYSTPPITFGQGTRLEIKR
B7: H1H21231N (antibody, V domains shown)
VH: EVQLVESGGGLVQPGGSLRLSCAASGFTFSDHYMDWVRQAPGKGLEWVGRTRNKANSHTTEYTASVTGRFTISRDDSRNSLYLQMNSLKTEDTAVYYCVRAGIIGTLFDYWGQGTLVTVSS
VL: B6 VL with S7F, I15V, Y32F, Y36F, M45K, L46F, T80P, T94S
B8: H1H21227N-N297Q (antibody, V domains shown)
VH: QVQLVQSGAEVKKPGASVKVSCKVSGYTLTELSIHWVRQVPGKGLEWMGGFDPEEGETIFAQEFRDRVTLTEDTSPDTAYMELSSLKSEDAAVYYCTTPRYCNNGICYDYWGQGTLVTVSS
VL: B6 VL with I15V, S31N, M45K, A50T, T94N, P95F
B9: H1H21227N (antibody, V domains shown)
VH: B8 VH
VL: B6 VL with I15V, S31N, M45K, A50T, T94N, P95F
B10: H2aM21227N (antibody, V domains shown)
VH: B8 VH
VL: B6 VL with I15V, S31N, M45K, A50T, T94N, P95F
B11: H1H27736P-N297Q (antibody, human IgG1, V domains shown)
VH: EVQLVESGGGLVQPGGSLRLSCAASGFTFSSYAMSWVRQAPGKGLEWVSSISGSGDSTFYTDSVKGRFTISRDISKNTLYLQMNSLRAEDTAVYYCAKDRLLWFGDLISPFHYWGQGTLVTVSS
VL: EIVLTQSPGTLSLSPGERATLSCRASQSVSNIYLAWYQQKPAQAPRLLIYGASSRATGIPDRFSVSGSGTDFTLTISRLEPEDFAVYYCQQYGSSPRTFGQGTKVEIKR
notes: human IgG1 Fc with N297Q
B12: H1H27756P-N297Q (antibody, human IgG1, V domains shown)
VH: QVQLVESGGGVVQPGRSLRLSCAASGFTFSNYDMHWVRQAPGKGLEWMAVISYDGINKYYADSVKGRFTISRDNSKNTLYLQMNSLRAEDTAVYYCAKGTYSWYFDLWGRGTLVTVSS
VL: not shown
notes: human IgG1 Fc with N297Q
B13: H1H27749P-N297Q (antibody, human IgG1, V domains shown)
VH: QVQLQESGPGLVKPSETLSLTCTVSDGSISSYYWSWIRQPPGRGLEWIGFIYYSGSTSYNPSLKSRVTISVDTSMSQFSLKLRSVTAADTAVYYCARGSPFDYWGPGTLVTVSS
VL: EIVLTQSPGTLSLSPGERATLSCRASQSVSSSYLAWYQQRPGQAPSLLISGASRRATGIPDRFSGSGSGTDFTLTIRRLEPEDFAMYYCQQYGSSPPTFGGGTKVEIKR
notes: human IgG1 Fc with N297Q
B14: H1H21231N-N297Q (antibody, human IgG1, V domains shown)
VH: B7 VH
VL: B6 VL with S7F, I15V, Y32F, Y36F, M45K, L46F, T80P, T94S
notes: human IgG1 Fc with N297Q
B15: H1H27732P-N297Q (antibody, human IgG1, V domains shown)
VH: QLQLQESGPGLVKPSETLSLTCTVSGGSISSSTYYWGWIRQPPGKGLEWIGSFYYSGSTYYNPSLKSRVTISVGTSKNQFSLKLSSVTAADTAVYFCARGGLLGRPFVIWGQGTMVTVSS
VL: DIQMTQSPSSLSASVGDRVTITCRASQGIRNDLGWYQQKPGKAPKRLIYAASSLQSGVPSRFSGSGSGTEFTLTISSLQPEDFATYYCLQHNSYPLTFGGGTKVEIKR
notes: human IgG1 Fc with N297Q
B16: H1H27760P2-N297Q (antibody, human IgG1, V domains shown)
VH: EVQLVESGGGLVQPGRSLRLSCAASGFTFDAYAMHWVRQAPGKGLEWVSGISWNSGSIGYADSVKGRFTISRDNAKNSLYLQMNSLREEDTALYYCAKDKILELYYYGMDVWGQGTTVTVSS
VL: not shown
notes: human IgG1 Fc with N297Q; also called H1H27760P-N297Q

The binders below were run against T1, human MSR1 with a C-terminal Myc tag … (assay: cell-based or functional assay).

B1 was tested. Which “IC50 of inhibition of Dil-Acetylated LDL uptake” value did it give?
The value was 1.2 nM.

For B2, which “IC50 of inhibition of Dil-Acetylated LDL uptake” value is on record?
Its value is 1.8 nM.

What about the “IC50 of inhibition of Dil-Oxidized LDL uptake” value of the same binder?
Its value is greater than 10 nM.

With B3 as the binder, how does the “IC50 of inhibition of Dil-Acetylated LDL uptake” value read?
Its value is 1.3 nM.

What about the “IC50 of inhibition of Dil-Oxidized LDL uptake” value of the same binder?
Its value is 6.1 nM.

For B4, which “IC50 of inhibition of Dil-Acetylated LDL uptake” value is on record?
The value was 0.71 nM.

And the “IC50 of inhibition of Dil-Oxidized LDL uptake” value?
Its value is 4.3 nM.

Which “IC50 of inhibition of Dil-Acetylated LDL uptake” value does the source give for B5 here?
Its value is greater than 170 nM.

What about the “IC50 of inhibition of Dil-Oxidized LDL uptake” value of the same binder?
Its value is greater than 16 nM.

B6 was tested. Which “% Inhibition of Dil-Acetylated LDL uptake” value did it give?
The value was 79%.

And the “% Inhibition of Dil-Oxidized LDL uptake” value?
The value was 91%.

What about the “IC50 of inhibition of Dil-Acetylated LDL uptake” value of the same binder?
The value was 2.4 nM.

B7 was tested. Which “% Inhibition of Dil-Acetylated LDL uptake” value did it give?
The value was 63%.

And the “% Inhibition of Dil-Oxidized LDL uptake” value?
The value was 78%.

What about the “IC50 of inhibition of Dil-Acetylated LDL uptake” value of the same binder?
Its value is 3.5 nM.

And the “IC50 of inhibition of Dil-Oxidized LDL uptake” value?
Its value is 3.6 nM.

What does the source list for B8?
% Inhibition of Dil-Acetylated LDL uptake: 65%; % Inhibition of Dil-Oxidized LDL uptake: 94%; IC50 of inhibition of Dil-Acetylated LDL uptake: 2.4 nM; IC50 of inhibition of Dil-Oxidized LDL uptake: 1.8 nM

Which “% Inhibition of Dil-Acetylated LDL uptake” value does the source give for B9 here?
The value was 65%.

And the “% Inhibition of Dil-Oxidized LDL uptake” value?
Its value is 89%.

And the “IC50 of inhibition of Dil-Acetylated LDL uptake” value?
The value was 2.1 nM.

And the “IC50 of inhibition of Dil-Oxidized LDL uptake” value?
Its value is 2 nM.

How did the “IC50 of inhibition of Dil-Acetylated LDL uptake” value turn out when B10 was run?
The value was 3.7 nM.

And the “IC50 of inhibition of Dil-Oxidized LDL uptake” value?
The value was 3.1 nM.

What follows are binders tested against T2, mouse MSR1 on RAW264.7 cells (assay: flow cytometry, RAW264.7 cells, 10 ug/mL;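 also: antibodies bound to RAW264.7 cells for 30 min on ice after Fc block with mouse IgG, S/N is MFI relative to unstained cells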).
Protocol: To block binding to Fc receptors, RAW264.7 cells were incubated for 30 minutes at 4° C. with 500 μg/mL mouse IgG (Jackson ImmunoResearch, Cat #015-000-003) diluted in staining buffer, while B16F10.9 cells remained in staining buffer. Following Fc receptor blocking, 10 μg/mL of anti-MSR1 antibodies or an isotype control antibody were added to the cells and were subsequently incubated for 30 minutes on ice. […] The signal to noise (S/N) was determined by calculating the ratio of the anti-MSR1 antibodies or the control antibodies MFI to the unstained sample MFI (Table 16).

How did the MFI turn out when B11 was run?
The MFI was 3550.

B12 was tested. Which MFI did it give?
The MFI was 4570.

With B13 as the binder, how does the MFI read?
The MFI was 3790.

Which MFI does the source give for B14 here?
Its MFI is 3580.

What about the S/N of the same binder?
The S/N was 1.

How did the MFI turn out when B15 was run?
The MFI was 3420.

How did the MFI turn out when B16 was run?
Its MFI is 3430.
